In the supplement of paper PMC12042874:
± gives the uncertainty stated by the source.

Assay: amyloid nucleation score (Sup35N fusion, yeast selection) (log enrichment); library NNK1; higher = more nucleation; inactive = no reads after selection
Outline: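 After 24 hours of induction with 100 μM copper sulfate, psi-negative yeast expressing peptides of 20 random codons fused to Sup35N were grown for 7 days at 30°C on medium lacking adenine and uracil. Input and output plasmid inserts were sequenced with Illumina, and sequences with under 100 input reads were discarded. Scores for nucleation are the DiMSum log enrichment of output over input reads, centred on the mode score of non-aggregating sequences.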

Substance | amyloid nucleation score
RKWRVCDKND | -0.491 ± 0.86
FIYFYGRYNSSGDPFQVFLG | -0.578 ± 0.34
IWPYLGSASVL | 1.73 ± 0.35
HITMRLFTPYLTYNMPMSLK | 0.063 ± 0.24
HCTRINVHFYNIYTVLVSFS | 5.33 ± 0.073
DGCDGCLTYAKCGYLGFY | 0.424 ± 0.67
LRSSEYWSLMEVDLVMDSLP | 0.629 ± 0.97
LHLPYGCTASAICQFECSGW | 3 ± 0.15
TLTDSN | -0.221 ± 0.53
FTVLWCRSMLGC | -0.111 ± 0.4
CMVSIQVVFKH | 4.44 ± 0.1
SYLGCVHWSRRTDLVTFFDF | 0.495 ± 0.27
TVLTTTHFARSVFTLPGKSP | 2.89 ± 0.17
IINRNYI | 1.1 ± 0.84
MMAFCS | 0.264 ± 0.39
NFRNLSYCFQFPMFVARRLK | 1.06 ± 0.67
NIEIRVCSRIVGHGLKFPKP | 3.37 ± 0.17
LEILL | 0.145 ± 0.45
VCKGVYNMPCSTPNLYDSAG | -0.563 ± 0.79
TEITC | 0.837 ± 0.27
SRYYLSRPVLRYG | 0.546 ± 0.42
RGVLFVAINW | 2.47 ± 0.31
RCDNAQLHIFVHLFRSVSDM | inactive
KLYLVVRMTGQPPSGMACVL | 0.142 ± 1.2
LYAWGVRYSVVMLFSYRGVH | -0.026 ± 1.2

Substance | amyloid nucleation score
VIFSNWVTAGFACFMHLLVR | 0.398 ± 0.9
FTRGDICLYLFCELFRPVNC | 2.29 ± 0.22
GTNWDMLCYIVLTYGVVRAF | -0.116 ± 0.51
ALVTVIHAPVFYLWNAFYLC | 7.396 ± 0.048
LFLIV | -0.08 ± 0.24
DLMGSWYDLRYMKGLKGK | -0.265 ± 0.13
HLHFTILY | 2.55 ± 0.28
LWWLHGDLLLSWGFRMLWPL | 0.117 ± 0.78
SRSIRSYDPWMVCMSMWLSD | 1.13 ± 0.9
LTASLTAGVTRWVLRRFVYH | 0.588 ± 0.77
SSGVFTSI | -0.042 ± 0.66
NRSLKCICRRSVGRRSQNLR | 0.57 ± 0.5
RVRVSLTWQLISLVVMSEYR | 0.809 ± 0.64
GGSLVSGSFDKYSYSKYRLW | -0.128 ± 1.4
TTINIRYPIYSVVMCWYRLE | 5.513 ± 0.045
FKRRLGCLKPRNY | -0.333 ± 0.52
EKVILHANCFCITMNRMLYH | -0.015 ± 0.39
ELHTAEFNLNRM | 1.04 ± 0.73
GWRNGKCFDGASPEWVLGHA | -0.39 ± 1.2
RRCCNVERGSAKVALTV | -0.153 ± 1.3
RLAVLEELMVRICIVIRNFW | -0.328 ± 0.69
NLCRIRIARLQHGGRSTMSF | 1 ± 0.73
TLWYLLQITYVLKFKW | 0.301 ± 0.4
IQSLVFRGKRVTHTKQSLTL | 0.262 ± 0.36
CFCFFIVSPMMF | 3.89 ± 0.056

Substance | amyloid nucleation score
VSCLNLIVSWYYANFGN | -0.17 ± 0.32
VMYVPPMACSLS | -0.315 ± 0.77
PIYGFLWELRR | 0.486 ± 0.51
RNCNWDYEVNIKWRVRVEFL | inactive
GVCRLLGKVAMLV | -2.1 ± 2.4
SVVFGSSYRNAVGCWTWSQG | 0.6 ± 0.4
WHAHFEFNMLGILCRHFCSL | 3.19 ± 0.16
FRSAKAIMLEVN | 0.048 ± 0.41
FPDMCILRILYVKVLV | -1.52 ± 1.6
FNCLMALIFPDVLDCSYSVD | 1.26 ± 0.9
LRITNAPKLVYVSAQEVNSQ | 1.47 ± 0.25
CSRTMTWYP | -1.14 ± 1.3
SIRLREL | 1.61 ± 0.76
DIVATYRVRISLNPNVMVTY | 0.466 ± 0.32
FRDSTET | 0.495 ± 1.4
CVGGWWKTRHMSIWNWIWWL | 0.197 ± 0.9
NPPWQCGVRHDHLWVTSYHS | -0.481 ± 0.32
YIIVLA | 1.28 ± 0.61
PDWCLMVLLCGLVCIYVDLN | 0.22 ± 1.1
AFFYYIEQDSYTVRSIMI | -0.294 ± 0.42
YSLMLFESVSSGFKCSLRFA | -0.65 ± 0.42
ISYVSVS | 0.073 ± 0.41
WSKLYIAK | -0.69 ± 0.41
CDWGN | 1.14 ± 0.93
LRKWSERGPWP | 0.048 ± 0.46

Substance | amyloid nucleation score
YGSLIHMIRNEGLNIGGKSA | -0.51 ± 0.4
LYYDSRASFPCISLEIERYV | -0.083 ± 0.33
VHAHVSREIFTGQ | 0.659 ± 1
ECPRVSLASGDVE | 1.17 ± 0.66
RMERGKNLQMWEGQEVGAEN | -1.19 ± 0.77
TSSVYLWVSQCYGMNSLLNL | -0.118 ± 0.75
TDLMLYYCYSAVPCWDFPAS | 0.073 ± 1
RYAWVTMVVYACLQLGSASR | 0.678 ± 0.21
VFADVISIKMNCTLLTSILL | 0.823 ± 0.37
FSWADLDRYCISLQNQGPLA | 0.66 ± 0.42
MPKRSKHFVNWVVNA | -0.265 ± 0.29
VSHDGGLLRVWFMLALREGN | 0.003 ± 0.49
VRVISLEVLGYFCPRRLAGA | inactive
TLKHEQAREGFFAM | -0.053 ± 0.56
RCHTLFIVSLYRRVRNHMSC | 0.558 ± 0.79
VDVRNWCIWDWKGLSAGVGG | -0.643 ± 0.41
YYFIFII | 4.79 ± 0.074
VPPASQISGPWARLSEMVSH | -1.12 ± 0.7
WGLLLE | 4.13 ± 0.094
FESRDVRSLWWDWSYSNKTV | 0.191 ± 0.28
HILSSVLHSGVCMWTVITPY | 0.72 ± 0.71
FNNPKCHSWLDRMVWLMWLA | 0.343 ± 0.61
VGWGAMQGLMSGGLYIPV | -0.671 ± 2.1
AVLKGYRWACMVFLSGFGRC | 0.243 ± 0.41
AGRMEGYESEGPPGHA | 0.187 ± 0.39

Substance | amyloid nucleation score
MCVGRDISGEWSYYQCMVEL | 0.495 ± 0.28
AGWYASW | 0.142 ± 0.74
PAYGTNIVAIYLWH | 3.59 ± 0.093
GGTYPPLDISDFNW | -0.616 ± 0.27
DRNYVGELTEFTGVMGRGRQ | -0.858 ± 1.1
WVWDCFHDCVPYMGRTGLVA | -0.56 ± 0.93
DYRTCSCF | inactive
SVSEWRQVILIIGVIVK | -0.278 ± 0.51
LFPIDSVNGTDWMTRMRDKI | inactive
TMPNSFRWCLNGRVRRDRFC | -0.215 ± 0.97
LIWFVYMD | 0.347 ± 0.55
LDSARMGLFITGMV | -1.06 ± 0.87
AANCTMMFKKPSWNVTRERV | 0.26 ± 0.34
NGNLKRSSEVFHCFGISLEF | 0.694 ± 0.36
YSGPGAQFIAMLNKLWCTAH | 1.23 ± 0.24
ETALVVLTRVTEGCGRGQKT | 0.668 ± 0.77
EGFITSSMALGLHFVLLGWV | -1.37 ± 1.3
SEKGCYYIGSLTGR | 0.184 ± 1.2
SDELVQSTASGLFYASMGFK | 1.75 ± 0.76
SWVWCYWILSWIREFLLRQG | 0.447 ± 0.42
RMFNQAI | -0.394 ± 0.74
ARYGVSGHAYDTNPRRYFGQ | -0.903 ± 2.4
CFIIIQPCANGWWYRCRSCV | -0.236 ± 0.38
CFSISVTAYHSKSAT | 4.14 ± 0.099
GIKRHIEDCLV | 1.04 ± 0.46

Substance | amyloid nucleation score
DLAFRPVLVLQ | 0.762 ± 0.65
HGSECSWRLLLRHPLMGTSG | -0.089 ± 0.49
NNYNYLYTYNMQNQKQFIFM | 7.281 ± 0.066
FLRELMRCIGASSTFLGVEK | -0.204 ± 0.29
WNCKLTMADGGSAKVAPLSS | 0.38 ± 0.32
LPGDFYGSYRN | inactive
SNMLHWSVRMGHGWW | 0.184 ± 1
GLNALSFNQV | -0.383 ± 0.48
SLSRMVGCTTVF | inactive
QTRWWEYHHNLFVLQITFGG | 1.04 ± 0.27
CFMETYSWKVRYTLFHKLST | 0.552 ± 0.79
TIAMCISLIGIDSYY | 0.997 ± 0.29
ESEWNIMPFDNLYLGRETVW | inactive
VNKRISGTLHDTYEGDLCL | -0.418 ± 0.75
NFPKHFSSALRF | -0.081 ± 0.35
NSVWLLTNVLKFGTNVSRHR | 2.57 ± 0.16
PYPYAISRYVFMVSNSDMFM | 4.53 ± 0.054
SVESYTKAISIYTIGERIVL | -0.004 ± 1.6
MLTRLHVSLSCHFYLWRSL | 0.838 ± 0.56
TEFFGVGLRMKSNGVWWISG | -0.65 ± 1.4
ILSDVDVCGYLRFMFWSMSD | 1.58 ± 0.49
ESHSSTKGSEWLRHSHSDGV | 0.632 ± 0.39
RGDLCGSRIFLWFALPVN | -0.726 ± 0.62
FYTAYCGLALRLVTTQPCMS | -0.001 ± 0.49
YYTCGMYPIYRCCLRTMYSA | -0.494 ± 0.22

Substance | amyloid nucleation score
RWKRVIMSQHQVVYVNSWMV | -0.484 ± 1.9
SWALRWYPELIET | 0.076 ± 0.29
TALESFRHCLVQSNPGSQVV | -0.217 ± 0.5
SRPNDMFTALVYTCYLPNK | -0.539 ± 0.6
RQEVKAMGRFTATSLGTHSR | 0.399 ± 0.47
LSHLLMRCGCIRLFVISMRE | 0.448 ± 0.49
KSYLLGDGTFNSCTW | 0.107 ± 0.69
LAITDKCSRALSLLSCPDF | 0.265 ± 0.63
PVDNLFNFLSGSCAISNFQK | 0.638 ± 0.58
RSTGTGTICV | inactive
TVRLKLINRYPDENRLYTDH | 1.3 ± 0.21
WRMYMYVNNPSNKHWVRRAS | -0.488 ± 0.51
MGTSITI | -0.202 ± 0.84
GSRNCIWLFFVVWV | inactive
ILHWEKRDSTVKILSLSIHW | 0.385 ± 0.46
ISLGCNDSGLRIG | -0.935 ± 0.84
DFAFYTVTLCFE | 0.809 ± 0.35
HVCEGEVVR | -0.135 ± 0.37
FEVNFPAYIYWSDCPVVGVS | -0.127 ± 0.38
CGAYRMWQYKASRGTHWPYT | -0.182 ± 0.6
QYNTLCFGMSTGYLYLNISS | 2.83 ± 0.19
KSAANTINIRPENETVPRFQ | 0.556 ± 0.59
FLCSIISYS | 5.572 ± 0.048
